Measurements: US20150023971A1
Values belong to the substance of their own block, whether it stands above or below them.

What was measured:
[1] = target: his-tagged sortilin luminal domain, mutant R163A (human) (UniProt Q99523); test: SPR (Biacore), mutant immobilised on CM5, GST-pro-dom-NGF 10-50 nM, 1:1 fit
[2] = target: his-tagged sortilin luminal domain, mutant F174A (human) (UniProt Q99523); test: as above
[3] = target: his-tagged sortilin luminal domain, mutant F170A (human) (UniProt Q99523); test: as above
[4] = target: his-tagged sortilin luminal domain, mutant R160A (human) (UniProt Q99523); test: as above
[5] = target: his-tagged sortilin luminal domain, mutant K172A (human) (UniProt Q99523); test: as above
[6] = target: his-tagged sortilin luminal domain, mutant R166A (human) (UniProt Q99523); test: as above
[7] = target: his-tagged sortilin luminal domain, mutant F165A (human) (UniProt Q99523); test: as above
[8] = target: T1, recombinant his-S-tagged pro-domain of human BDNF (residues Ala1-Arg110), from pET-30 Xa/LIC, E. coli (human) (UniProt P23560); test: SPR (Biacore 2000), 390 nM Sortilin over immobilised pro-domain (˜300 fmol/mm2)
T1 sequence: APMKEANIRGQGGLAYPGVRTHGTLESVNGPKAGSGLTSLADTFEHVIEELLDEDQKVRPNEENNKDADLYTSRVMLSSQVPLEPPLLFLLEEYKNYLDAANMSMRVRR

[9] = target: purified human Sortilin extracellular domain (produced in stably transfected CHO cells) (human) (UniProt Q99523); test: SPR (Biacore) competition, inhibitor prebound, then coinjected with 200 nM proNGF over immobilised Sortilin
[10] = target: purified human Sortilin extracellular domain (produced in stably transfected CHO cells) (human) (UniProt Q99523); test: SPR (Biacore), 25-500 nM propeptide over immobilised Sortilin extracellular domain

Sequence of his-tagged sortilin luminal domain, mutant R160A (human) (Q99523 other isoform, or with tags, fused parts or gaps R160A R160A limits assumed): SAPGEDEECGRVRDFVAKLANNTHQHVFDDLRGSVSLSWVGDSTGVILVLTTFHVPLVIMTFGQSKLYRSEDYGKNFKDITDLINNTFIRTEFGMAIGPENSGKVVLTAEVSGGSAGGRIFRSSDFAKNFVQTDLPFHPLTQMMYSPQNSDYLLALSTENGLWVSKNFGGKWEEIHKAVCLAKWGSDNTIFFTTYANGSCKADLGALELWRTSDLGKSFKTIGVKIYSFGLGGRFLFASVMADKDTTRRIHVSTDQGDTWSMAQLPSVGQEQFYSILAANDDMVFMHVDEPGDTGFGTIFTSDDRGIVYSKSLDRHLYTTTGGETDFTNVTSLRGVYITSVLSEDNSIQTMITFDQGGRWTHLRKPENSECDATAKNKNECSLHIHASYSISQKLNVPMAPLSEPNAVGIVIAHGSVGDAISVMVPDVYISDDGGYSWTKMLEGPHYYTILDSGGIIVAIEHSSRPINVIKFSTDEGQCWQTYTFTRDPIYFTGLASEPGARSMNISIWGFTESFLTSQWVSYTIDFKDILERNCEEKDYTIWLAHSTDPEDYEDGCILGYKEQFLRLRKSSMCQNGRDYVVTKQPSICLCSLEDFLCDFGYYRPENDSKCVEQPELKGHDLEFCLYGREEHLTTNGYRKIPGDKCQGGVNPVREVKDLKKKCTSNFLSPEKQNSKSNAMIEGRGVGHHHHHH
Sequence of purified human Sortilin extracellular domain (produced in stably transfected CHO cells) (human) (Q99523 78-755 V650M limits assumed): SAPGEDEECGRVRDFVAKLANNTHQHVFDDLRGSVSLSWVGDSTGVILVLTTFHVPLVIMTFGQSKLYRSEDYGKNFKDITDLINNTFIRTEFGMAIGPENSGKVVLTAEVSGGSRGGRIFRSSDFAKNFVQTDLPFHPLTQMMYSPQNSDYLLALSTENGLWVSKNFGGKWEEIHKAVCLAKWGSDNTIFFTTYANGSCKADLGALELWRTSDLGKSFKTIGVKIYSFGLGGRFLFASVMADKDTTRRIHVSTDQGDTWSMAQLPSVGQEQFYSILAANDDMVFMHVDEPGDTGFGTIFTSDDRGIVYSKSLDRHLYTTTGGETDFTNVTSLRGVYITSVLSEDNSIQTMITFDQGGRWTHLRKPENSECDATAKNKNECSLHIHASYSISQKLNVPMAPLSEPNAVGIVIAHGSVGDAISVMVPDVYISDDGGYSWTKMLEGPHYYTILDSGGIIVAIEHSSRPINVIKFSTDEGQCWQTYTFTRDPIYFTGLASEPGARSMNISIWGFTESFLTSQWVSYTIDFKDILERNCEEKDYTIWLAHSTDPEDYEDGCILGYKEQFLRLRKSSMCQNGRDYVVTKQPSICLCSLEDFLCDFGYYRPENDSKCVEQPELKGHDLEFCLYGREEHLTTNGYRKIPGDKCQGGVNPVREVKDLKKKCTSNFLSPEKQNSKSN
Sequence of his-tagged sortilin luminal domain, mutant F170A (human) (Q99523 other isoform, or with tags, fused parts or gaps F170A F170A limits assumed): as the sequence (Q99523 other isoform, or with tags, fused parts or gaps R160A R160A limits assumed) above, with A116R, F126A counted along it
Sequence of his-tagged sortilin luminal domain, mutant R163A (human) (Q99523 other isoform, or with tags, fused parts or gaps R163A R163A limits assumed): as the sequence (Q99523 other isoform, or with tags, fused parts or gaps R160A R160A limits assumed) above, with A116R, R119A counted along it
Sequence of his-tagged sortilin luminal domain, mutant K172A (human) (Q99523 other isoform, or with tags, fused parts or gaps K172A K172A limits assumed): as the sequence (Q99523 other isoform, or with tags, fused parts or gaps R160A R160A limits assumed) above, with A116R, K128A counted along it
Sequence of recombinant human Sortilin ectodomain with C-terminal poly-histidine tag (pCEP-Pu, EBNA293/HEK293 cells), ending at Ser725 (Q99523 other isoform, or with tags, fused parts or gaps limits assumed): as the sequence (Q99523 other isoform, or with tags, fused parts or gaps R160A R160A limits assumed) above, with A116R counted along it
Sequence of his-tagged sortilin luminal domain, mutant F174A (human) (Q99523 other isoform, or with tags, fused parts or gaps F174A F174A limits assumed): as the sequence (Q99523 other isoform, or with tags, fused parts or gaps R160A R160A limits assumed) above, with A116R, F130A counted along it
Sequence of his-tagged sortilin luminal domain, mutant F165A (human) (Q99523 other isoform, or with tags, fused parts or gaps F165A F165A limits assumed): as the sequence (Q99523 other isoform, or with tags, fused parts or gaps R160A R160A limits assumed) above, with A116R, F121A counted along it
Sequence of his-tagged sortilin luminal domain, mutant R166A (human) (Q99523 other isoform, or with tags, fused parts or gaps R166A R166A limits assumed): as the sequence (Q99523 other isoform, or with tags, fused parts or gaps R160A R160A limits assumed) above, with A116R, R122A counted along it

Kd [1]: 2.7 nM
Kd [2]: 4.27 nM
Kd [3]: 5.59 nM
Kd [4]: 1.89 nM
kon [4]: 147000 M⁻¹ s⁻¹
Kd [5]: 3.91 nM
Kd [6]: 4.38 nM
Kd [7]: 3.86 nM
Substance: GST-NGF-pro-domain fusion protein (Nykjaer et al., Nature 2004) (from UniProt P01138 19-121)

response (RU) [8]: 300 RU
Substance: recombinant human Sortilin ectodomain with C-terminal poly-histidine tag (pCEP-Pu, EBNA293/HEK293 cells), ending at Ser725 (from UniProt Q99523 78-755) (receptor)

percent inhibition of proNGF binding to Sortilin [9]: 85%
Kd [10]: 8 nM
Substance: human NGF-propeptide expressed in E. coli
